Experimental data from PMC8563870, “Development of a nanobody-based immunoassay for the sensitive detection of fibrinogen-like protein 1” (Acta Pharmacologica Sinica, 2021).

B1: FGL1-Fc fusion protein (human fibrinogen-like protein 1 with C-terminal human IgG1 Fc and Flag tag) (Fc fusion, UniProt Q08830 23-306, looked up)
chain: LEDCAQEQMRLRAQVRLLETRVKQQQVKIKQLLQENEVQFLDKGDENTVIDLGSKRQYADCSEIFNDGYKLSGFYKIKPLQSPAEFSVYCDMSDGGGWTVIQRRSDGSENFNRGWKDYENGFGNFVQKHGEYWLGNKNLHFLTTQEDYTLKIDLADFEKNSRYAQYKNFKVGDEKNFYELNIGEYSGTAGDSLAGNFHPEVQWWASHQRMKFSTWDRDHDNYEGNCAEEDQSGWWFNRCHSANLNGVYYSGPYTAKTDNGIVWYTWHGWWYSLKSVVMKIRPND
notes: signal peptide in the construct; human fibrinogen-like protein 1 (FGL1), amino acids 1-306 of NCBI NM_004467, called full-length in the methods; the results say that the protein has 312 amino acids; A 3C protease site and a linker (GGGGS) stand between FGL1 and the Fc, and the Flag tag follows the Fc; The Fc may itself hold the dimer together; For SPR and the ELISAs the Fc was cut off with 3C …

Columns and labels:
LAG-3 (Homo sapiens) = LAG-3 (Homo sapiens) (UniProt P18627); conditions: cited from earlier work
[1] = target: the molecule itself; test: SEC; Superdex 200, 20 mM Tris pH 8.0, 150 mM NaCl; FGL1-Fc after anti-Flag M2 affinity; one aggregate peak and two FGL1 peaks, the peak at approximately 66 mL taken as the homodimer

Sequence of LAG-3 (Homo sapiens) (P18627 23-450): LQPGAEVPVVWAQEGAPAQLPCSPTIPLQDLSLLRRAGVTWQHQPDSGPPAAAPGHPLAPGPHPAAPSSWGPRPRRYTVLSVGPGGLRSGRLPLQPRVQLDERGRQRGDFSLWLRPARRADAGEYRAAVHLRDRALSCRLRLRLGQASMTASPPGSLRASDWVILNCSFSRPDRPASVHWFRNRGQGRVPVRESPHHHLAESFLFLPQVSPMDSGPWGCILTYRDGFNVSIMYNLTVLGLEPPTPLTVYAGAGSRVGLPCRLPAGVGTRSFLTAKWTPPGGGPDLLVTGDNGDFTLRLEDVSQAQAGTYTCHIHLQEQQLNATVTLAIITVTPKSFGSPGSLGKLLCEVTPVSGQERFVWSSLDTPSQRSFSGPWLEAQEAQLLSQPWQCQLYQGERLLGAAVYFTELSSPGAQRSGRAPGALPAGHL

Molecule | Kd (LAG-3 (Homo sapiens)) | stoichiometry N [1]
FGL1 (from UniProt Q08830) | 1.5 nM | –
B1 | – | 2
